Biological target: gp120 from HIV-1 strain SF162 (clade B) (HIV-1 group M subtype B, isolate SF162, UniProt P19550, strain)
Assay: SPR

Binder | binding result
2G12 IgG monomer (antibody, V domains shown) VH: EVQLVESGGGLVKAGGSLILSCGVSNFRISAHTMNWVRRVPGGGLEWVASISTSSTYRDYADAVKGRFTVSRDDLEDFVYLQMHKMRVEDTAIYYCARKGSDRLSDNDPFDAWGPGTVVTVSP VL: VVMTQSPSTLSASVGDTITITCRASQSIETWLAWYQQKPGKAPKLLIYKASTLKTGVPSRFSGSGSGTEFTLTISGLQFDDFATYHCQHYAGYSATFGQGTRVEIK | binds
2G12 IgG dimer (antibody, V domains shown) VH: EVQLVESGGGLVKAGGSLILSCGVSNFRISAHTMNWVRRVPGGGLEWVASISTSSTYRDYADAVKGRFTVSRDDLEDFVYLQMHKMRVEDTAIYYCARKGSDRLSDNDPFDAWGPGTVVTVSP VL: VVMTQSPSTLSASVGDTITITCRASQSIETWLAWYQQKPGKAPKLLIYKASTLKTGVPSRFSGSGSGTEFTLTISGLQFDDFATYHCQHYAGYSATFGQGTRVEIK | binds

Source: PMC3919625 (Cell reports, 2013)
